From PMC6596994 (Nature, 2019) come the findings set out here.

Where two headings read alike, the source gives them in different places. Ends that are not written are not given here.

To fix the notation:
B1: Human TBK1 (1–657, S172A) (domain or fragment)
chain: MQSTSNHLWLLSDILGQGATANVFRGRHKKTGDLFAIKVFNNISFLRPVDVQMREFEVLKKLNHKNIVKLFAIEEETTTRHKVLIMEFCPCGSLYTVLEEPSNAYGLPESEFLIVLRDVVGGMNHLRENGIVHRDIKPGNIMRVIGEDGQSVYKLTDFGAARELEDDEQFVALYGTEEYLHPDMYERAVLRKDHQKKYGATVDLWSIGVTFYHAATGSLPFRPFEGPRRNKEVMYKIITGKPSGAISGVQKAENGPIDWSGDMPVSCSLSRGLQVLLTPVLANILEADQEKCWGFDQFFAETSDILHRMVIHVFSLQQMTAHKIYIHSYNTATIFHELVYKQTKIISSNQELIYEGRRLVLEPGRLAQHFPKTTEENPIFVVSREPLNTIGLIYEKISLPKVHPRYDLDGDASMAKAITGVVCYACRIASTLLLYQELMRKGIRWLIELIKDDYNETVHKKTEVVITLDFCIRNIEKTVKVYEKLMKINLEAAELGEISDIHTKLLRLSSSQGTIETSLQDIDSRLSPGGSLADAWAHQEGTHPKDRNVEKLQVLLNCMTEIYYQFKKDKAERRLAYNEEQIHKFDKQKLYYHATKAMTHFTDECVKKYEAFLNKSEEWIRKMLHLRKQLLSLTNQCFDIEEEVSKYQEYTNELQET

Experiment in all cases: SPR
(SPR reads the build-up and loss of mass on a sensor chip optically.)

For assay [1], the target named is p-hSTING (155–379) (human) (UniProt Q86WV6).
In a further assay the target is hSTING (155–379) P373A (human, UniProt Q86WV6 155-379, P373A, biotin on the Avi tag).
The next assay concerns the target hSTING (155–379) L372A (human, UniProt Q86WV6 155-379, L372A, biotin on the Avi tag).
In assay [2] the target is T1, Mouse TBK1 (1–657, S172A) (mouse, UniProt Q9WUN2 1-657, S172A).
T1 sequence: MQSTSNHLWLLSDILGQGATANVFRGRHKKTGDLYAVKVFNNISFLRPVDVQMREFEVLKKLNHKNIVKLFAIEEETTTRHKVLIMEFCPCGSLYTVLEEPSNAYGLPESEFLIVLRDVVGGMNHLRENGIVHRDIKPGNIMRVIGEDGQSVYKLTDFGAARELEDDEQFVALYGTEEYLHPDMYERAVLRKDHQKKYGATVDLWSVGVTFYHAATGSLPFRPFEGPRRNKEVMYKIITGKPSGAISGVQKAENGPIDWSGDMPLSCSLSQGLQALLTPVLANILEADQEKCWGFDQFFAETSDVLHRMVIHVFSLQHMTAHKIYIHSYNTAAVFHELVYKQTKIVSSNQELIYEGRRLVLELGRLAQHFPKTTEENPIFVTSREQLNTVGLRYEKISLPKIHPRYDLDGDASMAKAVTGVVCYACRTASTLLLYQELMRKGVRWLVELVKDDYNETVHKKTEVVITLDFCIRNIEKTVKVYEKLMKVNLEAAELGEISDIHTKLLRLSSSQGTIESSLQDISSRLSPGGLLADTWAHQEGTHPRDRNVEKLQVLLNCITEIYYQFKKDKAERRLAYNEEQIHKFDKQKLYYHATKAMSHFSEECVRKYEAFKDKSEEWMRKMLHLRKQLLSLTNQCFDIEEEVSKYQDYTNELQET

Assay [3] addresses B1.
Assay [4] deals with T1, Mouse TBK1 (1–657, S172A). The source holds these as a separate data set.
Assay [5] has as its target B1. This is another data set of the same source.
Assay [6] deals with T2, human IRF-3 (residue 189–427) (human, UniProt Q14653 189-427).
T2 sequence: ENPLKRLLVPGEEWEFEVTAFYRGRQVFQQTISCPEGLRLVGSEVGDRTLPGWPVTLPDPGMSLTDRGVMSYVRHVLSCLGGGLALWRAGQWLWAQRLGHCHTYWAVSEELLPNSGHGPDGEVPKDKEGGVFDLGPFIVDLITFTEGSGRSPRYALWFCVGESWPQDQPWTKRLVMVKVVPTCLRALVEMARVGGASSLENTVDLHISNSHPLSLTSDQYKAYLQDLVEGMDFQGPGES

Turning to “human TBK1 K584A (from UniProt Q9UHD2 1-657) (domain or fragment)”, the fold reduction of the binding affinity against wild type TBK1 in assay [1] is 20 fold.

As to “human TBK1 Q581A (from UniProt Q9UHD2 1-657) (domain or fragment)”, in assay [1], the fold reduction of the binding affinity against wild type TBK1 was 20 fold.

B1: the “fold reduction of the binding affinity against wild type STING” value with hSTING (155–379) P373A and in the assay with hSTING (155–379) L372A was ~10 fold in each case.

B2: hSTING (155–379), unphosphorylated (domain or fragment)
chain: VAHGLAWSYYIGYLRLILPELQARIRTYNQHYNNLLRGAVSQRLYILLPLDCGVPDNLSMADPNIRFLDKLPQQTGDHAGIKDRVYSNSIYELLENGQRAGTCVLEYATPLQTLFAMSQYSQAGFSREDRLEQAKLFCRTLEDILADAPESQNNCRLIAYQEPADDSSFSLSQEVLRHLRQEEKEEVTVGSLKTSAVPSTSTMSQEPELLISGMEKPLPLRTDFS
modifications: biotin on the Avi tag
In general, Kd refers to the free concentration of one partner at which half of the binding sites on the other are occupied at equilibrium, for simple one-to-one binding. A higher Kd goes with a looser complex. On to B2, for which the Kd was ~170 µM in assay [2], ~290 µM in assay [3], ~260 µM in assay [4] and ~230 µM in assay [5].

B3: hSTING (155–379) L374A (domain or fragment)
chain: VAHGLAWSYYIGYLRLILPELQARIRTYNQHYNNLLRGAVSQRLYILLPLDCGVPDNLSMADPNIRFLDKLPQQTGDHAGIKDRVYSNSIYELLENGQRAGTCVLEYATPLQTLFAMSQYSQAGFSREDRLEQAKLFCRTLEDILADAPESQNNCRLIAYQEPADDSSFSLSQEVLRHLRQEEKEEVTVGSLKTSAVPSTSTMSQEPELLISGMEKPLPARTDFS
modifications: biotin on the Avi tag
Consider B3, for which, in assay [6], the binding result is listed as “binds”.

SGMEKPLPLREDWI (also: biotin on the Avi tag) [hSTING (366–379, T376E F378W S379I)]: the Kd in assay [2] was ~59 µM.

The molecule SGMEKPLPLREDWM (also: biotin on the Avi tag) [hSTING (366–379, T376E F378W 3379M)] came in with an equilibrium dissociation constant (Kd) in assay [2] of 43.9 µM.

B4: hSTING (155–379, T376E F378M S379W), biotin-Avi-His6-SUMO fusion (domain or fragment)
chain: VAHGLAWSYYIGYLRLILPELQARIRTYNQHYNNLLRGAVSQRLYILLPLDCGVPDNLSMADPNIRFLDKLPQQTGDHAGIKDRVYSNSIYELLENGQRAGTCVLEYATPLQTLFAMSQYSQAGFSREDRLEQAKLFCRTLEDILADAPESQNNCRLIAYQEPADDSSFSLSQEVLRHLRQEEKEEVTVGSLKTSAVPSTSTMSQEPELLISGMEKPLPLREDMW
modifications: biotin on the Avi tag
With B4, the Kd amounted to 1.2 µM in assay [2] and 1.4 µM in assay [3].

B5: hSTING (155–379, T376E) (domain or fragment)
chain: VAHGLAWSYYIGYLRLILPELQARIRTYNQHYNNLLRGAVSQRLYILLPLDCGVPDNLSMADPNIRFLDKLPQQTGDHAGIKDRVYSNSIYELLENGQRAGTCVLEYATPLQTLFAMSQYSQAGFSREDRLEQAKLFCRTLEDILADAPESQNNCRLIAYQEPADDSSFSLSQEVLRHLRQEEKEEVTVGSLKTSAVPSTSTMSQEPELLISGMEKPLPLREDFS
modifications: biotin on the Avi tag
Take B5: the dissociation constant Kd in assay [2] is ~62 µM.

In assay [2], SGMEKPLPLREDWF (also: biotin on the Avi tag) [hSTING (366–379, T376E F378W S379F)] returned an equilibrium dissociation constant (Kd) of 27.1 µM.

Take STSTMSQEPELLISGMEKPLPLRTDFS [p-hSTING (353–379)]: the values for the dissociation constant Kd in assay [2] and in assay [3] were 25.1 µM and 22.6 µM, respectively.

TWGSLKTSAVPSTSTMSQEPELLISGMEKPLPLRTDFS [p-hSTING (342–379)]: the Kd in assay [2] came to 15.3 µM; in assay [3], 16.8 µM.

With SGMEKPLPLREDWE (also: biotin on the Avi tag) [hSTING (366–379, T376E F378W S379E)], the Kd in assay [2] is ~127 µM.

Consider SGMEKPLPLRTDFS [p-hSTING (366–379)], for which the Kd in assay [2] was found to be 30.8 µM; in assay [3] it was 35.6 µM.
